According to US5876971A, “Thrombin inhibitor from the saliva of protostomia” (Schering Aktiengesellschaft, priority 1992, dated 1999):

Experiments:
thrombin [1] = assay: Inhibition of the thrombin activity in the clotting test (fibrinogen cleavage); assay type: biochemical
Method: Inhibition of the thrombin activity in the clotting test
In a microtiterplate, which is coated with bovine serum albumin (0.1% in 0.1 mol/l of NaHCO3, pH 9.5), 80 μl of 20 mmol/l of HEPES, pH 7.4; […] of NaCl; 20 μl of 20 mmol/l of CaCl2; 100 μl of a diluted solution of the protein of the invention (5-50 ng) and 20 μl of thrombin (0.03 IU=0.03 International Units) are pipetted. After an incubation of 2 minutes at 37° C., 100 μl of fibrinogen (5 mg/ml) is added and incubated for 40 minutes at 37° C. Then, the absorption is measured at 405 nm. […] (See FIG. 3)

thrombin [2] = assay: Inhibition of the thrombin activity in the amidolytic test (substrate S2238); assay type: biochemical; conditions: inhibitor 6 nmol/l; thrombin 0.03 IU
Method: Inhibition of the thrombin activity in the amidolytic test
In a microtiterplate, 80 μl of 100 mmol/l of tris/HCl, pH 7.4; 150 mmol/l of NaCl and 0.03 IU ([…]) of thrombin and 100 μl of a diluted solution of the protein of the invention (32-630 ng) are incubated for 10 minutes at 37° C. and then mixed with 100 μl (50 nmol) of substrate S2238 (Kabi Vitrum). After an incubation of 30 minutes at 37° C., the absorption is measured at 405 nm. 630 ng (117 nmol/l) inhibits the activity of the thrombin to approximately 50%. […] (See FIG. 2)

thrombin [3] = target: thrombin
thrombin [4] = target: thrombin; remark: listed apart in the source
thrombin [5] = target: thrombin; remark: listed apart in the source
thrombin [6] = target: thrombin; remark: listed apart in the source

With hirudin the “inhibition of fibrinogen cleavage (clotting)” value (thrombin [1]; inhibitor 8 nmol/l (45 ng), thrombin 0.03 IU (1.27 nmol/l), absorption at 405 nm) was “complete inhibition” and the “inhibition of thrombin activity in the amidolytic test” value (thrombin [2]) was 85%.

In the case of “thrombin inhibitor purified from the saliva of Triatoma pallidipennis (protein of the invention, purified according to Example 1)”, the inhibition of the thrombin activity in the clotting test (fibrinogen cleavage, absorption at 405 nm) (thrombin [3]) is reported as 8 nmol/L, the inhibition of thrombin-induced blood platelet aggregation (aggregometer) (thrombin [4]) is reported as 15 ng/mL and the inhibition of the thrombin activity in the amidolytic test (substrate S2238, absorption at 405 nm); concentration giving approximately 50% inhibition (thrombin [5]) is reported as 117 nmol/L. For the same molecule, the lengthening of the thrombin time (plasma clotting after adding thrombin) (thrombin [6]) was 35 nmol/L.

B1: purified fraction: recombinant mature protein (Ti28=seq. id. no. 2) produced in E. coli, purified by ion exchange and thrombin affinity chromatography (protein)
chain: AEGDDCSLEKAMGDFKPEEFFNGTWYLAHGPDVTSPAVCQKFTTSGSKGFTQIVEIGYNKFESNVKFQCNQVDNKNDEQYSFKCKGSDNTEFEADFTFISVSYDNFALVCRSIIFTSQPKEDDYLVFERTKSDTDPDANEIC
B1 was tested, and the “inhibition of thrombin activity in the clotting test (qualitative)” value (thrombin [1]; material from transformed E. coli, concentration not given) was “same inhibitory activity as the saliva protein”.
